Experiment [1] concerns the target cynomolgus MUC1 SEA domain protein (cynomolgus). Briefly: SPR, antibody captured, cynoMUC1 SEA analyte. A general note: Surface plasmon resonance follows binding to a sensor surface in real time, without labels.
Experiment [2] concerns the target full-length cynomolgus MUC1 on stably transfected cells (cynomolgus). Briefly: FACS (iQue3) on HEK293-cynoMUC1 cells.

Chain of full-length cynomolgus MUC1 on stably transfected cells (cynomolgus) (chain, as listed by the source limits assumed, form in doubt): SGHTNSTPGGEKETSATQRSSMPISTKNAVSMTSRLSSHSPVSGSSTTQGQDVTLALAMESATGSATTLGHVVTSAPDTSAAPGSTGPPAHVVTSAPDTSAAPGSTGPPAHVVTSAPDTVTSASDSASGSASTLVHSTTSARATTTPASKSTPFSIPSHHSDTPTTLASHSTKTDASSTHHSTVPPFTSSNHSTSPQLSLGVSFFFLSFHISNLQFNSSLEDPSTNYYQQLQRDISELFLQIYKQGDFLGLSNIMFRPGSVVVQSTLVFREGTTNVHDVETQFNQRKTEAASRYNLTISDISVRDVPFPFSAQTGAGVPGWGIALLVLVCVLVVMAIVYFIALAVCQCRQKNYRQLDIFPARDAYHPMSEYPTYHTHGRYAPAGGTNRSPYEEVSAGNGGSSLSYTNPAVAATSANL

B1: huBG138P-Hz2 (antibody, V domains shown)
VH: QVQLVQSGAEVKKPGASVKVSCKASGYTFTTYTMHWVRQAPGQRLEWMGYINPGSDYTHYNQKFKDRVTITADTSASTAYMELSSLRSEDTAVYYCARQGNYAAYYFDYWGQGTLVTVSS
VL: DIQMTQSPSSLSASVGDRVTITCRASGNIHNFLVWYQQKPGKSPKLLIYNAKTLTSGVPSRFSGSGSGTQYTLTISSLQPEDVATYYCQNFWNVPFTFGQGTKLEIK
The Kd is a measure of binding affinity in units of concentration. Usually EC50 (read off the curve) stands for the concentration giving half of the maximal effect. A high value points to lower potency in that assay. B1 gave a Kd in experiment [1] of 6.67 nM. The EC50 (read off the curve) in experiment [2] came to 3 nM.
